What was measured:
[1] = biological target: FLAG–TSP5 (human) (UniProt P49747); experiment: SDS/PAGE under non-reducing and reducing conditions with immunoblot; FLAG-tagged proteins immunoprecipitated with anti-FLAG M2 on rProtein G agarose from conditioned media of transfected COS7 cells, washed in Tris-buffered saline with 2 mM CaCl2, eluted by boiling in SDS sample buffer with or without 100 mM DTT; oligomers formed in the cells
[2] = biological target: FLAG–mRFP–TSP-5-1C (human); experiment: SDS/PAGE under non-reducing and reducing conditions with immunoblot; mRFP-tagged proteins collected with RFP-Trap_A beads from conditioned media of transfected COS7 cells, eluted by boiling in SDS sample buffer with or without 100 mM DTT; immunoblot for RFP (and FLAG, result not shown); oligomers formed in the cells
[3] = biological target: FLAG–TSP-5-1C (human); experiment: SDS/PAGE under non-reducing and reducing conditions with immunoblot; FLAG-tagged proteins immunoprecipitated with anti-FLAG M2 on rProtein G agarose from conditioned media of transfected COS7 cells, washed in Tris-buffered saline with 2 mM CaCl2, eluted by boiling in SDS sample buffer with or without 100 mM DTT; oligomers formed in the cells

Sequence of FLAG–TSP5, P49747 21-757 (natural protein; other documents disagree on this pair) (P49747 21-757): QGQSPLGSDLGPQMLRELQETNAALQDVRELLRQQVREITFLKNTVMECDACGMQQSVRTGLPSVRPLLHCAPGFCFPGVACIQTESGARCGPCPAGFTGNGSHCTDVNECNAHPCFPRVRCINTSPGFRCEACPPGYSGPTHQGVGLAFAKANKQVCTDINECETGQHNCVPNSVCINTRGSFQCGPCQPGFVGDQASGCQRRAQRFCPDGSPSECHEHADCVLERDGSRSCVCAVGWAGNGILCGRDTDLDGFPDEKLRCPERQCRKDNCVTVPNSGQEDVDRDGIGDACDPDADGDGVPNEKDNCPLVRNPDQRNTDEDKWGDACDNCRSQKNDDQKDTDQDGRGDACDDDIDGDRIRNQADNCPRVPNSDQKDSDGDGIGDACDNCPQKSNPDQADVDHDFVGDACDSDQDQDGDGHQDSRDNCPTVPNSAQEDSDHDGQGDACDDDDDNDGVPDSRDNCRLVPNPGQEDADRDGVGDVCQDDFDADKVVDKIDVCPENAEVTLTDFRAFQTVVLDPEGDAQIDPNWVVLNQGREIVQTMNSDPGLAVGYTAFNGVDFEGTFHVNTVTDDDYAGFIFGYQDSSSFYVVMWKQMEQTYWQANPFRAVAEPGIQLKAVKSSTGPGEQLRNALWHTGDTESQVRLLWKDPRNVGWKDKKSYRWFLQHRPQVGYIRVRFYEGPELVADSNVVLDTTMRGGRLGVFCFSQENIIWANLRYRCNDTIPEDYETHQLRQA

“FLAG–TSP5, P49747 21-757 (natural protein; other documents disagree on this pair)” was tested, and the stoichiometry N [1] was 5.

Work on FLAG–mRFP–TSP-5-1C yielded a stoichiometry N [2] of 5.

Substance FLAG–TSP-5-1C has a stoichiometry N [3] of 5.
